Laboratory results published in US20220378956A1.

Molecular target: soluble uPAR (suPAR) (UniProt Q03405)
Assay: SPR (Biacore 2000), antibody captured on protein A/G surface, suPAR injected, 25 C, 1:1 Langmuir fit

| Kd | Binder |
| --- | --- |
| 0.28 nM | Human Engineered ATN-658 variant HE ATN-3 (antibody, V domains shown) VH: EVQLVQSGPEVKKTGASVKISCKASGYSFTSYYMHWVRQAHGQGLEWIGEINPYNGGASYNQKIQGRATFTVDTSTSTAYMEFSSLRSEDTAVYYCARSIYGHSVLDYWGQGTLVTVSS VL: DVVMTQSPLSLSVTIGEPASISCRSSQSLLDSDGKTYLNWLLQKPGQSPKRLIYLVSKRDSGVPDRFSGSGSGTDFTLKISRVEAEDVGVYYCWQGTHFPLTFGQGTKLEIK |
| 0.28 nM | Human Engineered ATN-658 variant HE ATN-1 (antibody, human IgG1, V domains shown) VH: EVQLVQSGPEVVKTGASVKISCKASGYSFTSYYMHWVKQAHGQGLEWIGEINPYNGGASYNQKIKGRATFTVDTSTRTAYMEFSSLRSEDTAVYYCARSIYGHSVLDYWGQGTLVTVSS VL: DVVMTQSPLSLSVTIGEPASISCRSSQSLLDSDGKTYLNWLLQKPGQSPKRLIYLVSKRDSGVPDRFSGSGSGTDFTLKISRVEAEDVGVYYCWQGTHFPLTFGQGTKLEIK |
